Measured values reported in the supplement of paper PMC9170038.

Test system: MS2 coat protein
Experiment: apparent KD of MS2 coat protein; designed switch direction (-1 OFF switch, 1 ON switch): -1; higher = weaker reporter binding
Summary of the method: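 Stalled E. coli RNA polymerase transcribed designed RNA switches on Illumina chips, which were then titrated with SNAP-549-labelled MS2 coat protein, doubling from 0.7 or 1.5 nM to 3 µM. Steps lasted from 0.8–1.5 h at the lowest concentration to 10–20 min at the highest. The apparent KD is each design's median over clusters of curve-fitted normalised fluorescence.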

[1] = Eterna round: R95, input ligand: FMN 200 uM
[2] = Eterna round: R95, input ligand: microRNA oligo, concentration not stated
[3] = Eterna round: R95, input ligand: none
[4] = input ligand: microRNA oligo, concentration not stated

With “GAAAAGGUAGAGGAUAUUUCAGAUCAAAGCUGCAAAGAAGGCUGCACAUGAGGAUCACCCAUGUGGUCUUCAAA [Mod of Quesina 9 - Jieux - Exclusion 6] (Eterna round: R97, puzzle: Exclusion 6)” the “apparent KD of MS2 coat protein” value (input ligand: FMN 200 uM) was 0.121 µM and the “apparent KD of MS2 coat protein” value (input ligand: none) was 0.0197 µM.
“ACAAGAAUUUUGCUCGUAAAGUAGAAACGCGAGAGCGAGACAUGAGGAUCACCCAUGUAAAGGCAGUAGGUGGAGAU [JR_SV3TOV2_Sub027] (puzzle: Sensor v3, turn-off variant 2)” was tested, and the “apparent KD of MS2 coat protein” value [1] was 0.0493 µM, the “apparent KD of MS2 coat protein” value [2] was 0.0509 µM and the “apparent KD of MS2 coat protein” value [3] was 0.0461 µM.
With “CGAGUGUAAGGAUAUUCGGCGCCAGGGAACGACCUGGCGUAGAAGAAGGUACAUGAGGAUCACCCAUGUGGUUA [Issobi] (puzzle: Exclusion 4)” the “apparent KD of MS2 coat protein” value [2] was 0.142 µM.
For “AGACAGUCAGGAUAUACAUGAGGAUCACCCAUGUUGAGAUGUGAAAGGGCGGGAGUAGGUAGAAGGGACGAGAG [JR_Exclu3_Sub039] (puzzle: Exclusion 3)”, the “apparent KD of MS2 coat protein” value [1] was 0.0273 µM, the “apparent KD of MS2 coat protein” value [2] was 0.0267 µM and the “apparent KD of MS2 coat protein” value [3] was 0.0375 µM.
In the case of “GAUUAUGCGAGCUUUAGGGACAUGAGGAUCACCCAUGUUCGUCUUGUUGAUCUAGGUACACUGACAUACCUAAAUCU [JMF 65] (puzzle: Sensor v3, turn-off variant 1)”, the “apparent KD of MS2 coat protein” value [1] is reported as 0.022 µM, the “apparent KD of MS2 coat protein” value [2] is reported as 0.0269 µM and the “apparent KD of MS2 coat protein” value [3] is reported as 0.0183 µM.
For “AAUUUACAUGAGGAUCACCCAUGUGAGGAUAUGGUUUCGCUGGCCGUAGCCAGUGGAACCAGAAGGCGCGUGAU [Mat - Exclusion 1 - JL Mod - D28] (Eterna round: R97, puzzle: Exclusion 1)”, the “apparent KD of MS2 coat protein” value (input ligand: FMN 200 uM) was 0.195 µM and the “apparent KD of MS2 coat protein” value (input ligand: none) was 0.0843 µM.
In the case of “GAACUAAGGCAAAGCUUUAGUCGUACAUGAGGAUCACCCAUGUAGGAUAUGGUAGGCAAAGCAUACCAGAAGGACAGAGUGAUC [Mat - Exclusion NG 3 - Mod of JL - D62] (Eterna round: R96, puzzle: Exclusion NG 3)”, the “apparent KD of MS2 coat protein” value (input ligand: FMN 200 uM) is reported as 0.387 µM, the “apparent KD of MS2 coat protein” value [4] is reported as 0.363 µM and the “apparent KD of MS2 coat protein” value (input ligand: none) is reported as 0.22 µM.
In the case of “CAGUACUGAGGAUAUACAUGAGGAUCACCCAUGUGUUCCAGCUAGGAAACUAGCAGAAGUAGAAGGCAGUACUG [salish99_ex3_r3_067] (Eterna round: R96, puzzle: Exclusion 3)”, the “apparent KD of MS2 coat protein” value (input ligand: FMN 200 uM) is reported as 0.311 µM, the “apparent KD of MS2 coat protein” value [4] is reported as 0.017 µM and the “apparent KD of MS2 coat protein” value (input ligand: none) is reported as 0.0233 µM.
For “GGUCAGAUGGUAGGAUAUCCAUAUCGAGUGACUCUUUCAUAACAUGAGGAUCACCCAUGUCGGUGGGAGAAGGGCCGUACGGCG [salish99_ExNG02_R04_016] (Eterna round: R96, puzzle: Exclusion NG 2)”, the “apparent KD of MS2 coat protein” value (input ligand: FMN 200 uM) was 0.0389 µM, the “apparent KD of MS2 coat protein” value [4] was 0.0233 µM and the “apparent KD of MS2 coat protein” value (input ligand: none) was 0.0366 µM.
“UACAUGAGGAUCACCCAUGUUUUGUCGUGUAUGGUAUUUAUCUAGGAUAUCAUUUUAUUUAGCUAUGAGAAGGAGAAUAUUAAU [JMF's solution 94] (Eterna round: R96, puzzle: Exclusion NG 3)” was tested, and the “apparent KD of MS2 coat protein” value (input ligand: FMN 200 uM) was 0.0323 µM, the “apparent KD of MS2 coat protein” value [4] was 0.0205 µM and the “apparent KD of MS2 coat protein” value (input ligand: none) was 0.0312 µM.
For “CGGUCAUGAGGAUAUCGAGGUUAGUACAUGAGGAUCACCCAUGUUAUCCAGGUGUCGGUUCGAGAAGGCAUGUCCG [LRO-Ex5-12] (puzzle: Exclusion 5)”, the “apparent KD of MS2 coat protein” value [2] was 0.287 µM.
For “CAGUACUGAGGAUAUACAUGAGGAUCACCCAUGUGUUCCGGCUAGGAUACUAGCAAAGGUAGAAGGCAGUACUG [Mat - Exclusion 3 - Eli Mod - D22] (Eterna round: R97, puzzle: Exclusion 3)”, the “apparent KD of MS2 coat protein” value (input ligand: FMN 200 uM) was 0.458 µM and the “apparent KD of MS2 coat protein” value (input ligand: none) was 0.0354 µM.
“UUGGAGAUAGGAUAUACGAGGAGAGUUGAGGGAACGCGAUGACAUGAGGAUCACCCAUGUAGAAGGAUCAGGAG [JR_Exclu2_Sub070] (puzzle: Exclusion 2)” was tested, and the “apparent KD of MS2 coat protein” value [1] was 0.0282 µM, the “apparent KD of MS2 coat protein” value [2] was 0.036 µM and the “apparent KD of MS2 coat protein” value [3] was 0.0403 µM.
With “CUCGGACAUGAGGAUCACCCAUGUGAGGAUAUGAUGCGAUCGUCGAAAGACGAUAGCAUCAGAAGGCACAAAUG [Fiskers Ex 1 - 25] (puzzle: Exclusion 1)” the “apparent KD of MS2 coat protein” value [2] was 0.073 µM.
In the case of “GACAGGGCAGGAUAUCGAGAUCCGCACAUGAGGAUCACCCAUGUUCAGUCGAAAGACUGACGAGAAGGGCCGUGUC [Omei Ex5 E4] (Eterna round: R97, puzzle: Exclusion 5)”, the “apparent KD of MS2 coat protein” value (input ligand: FMN 200 uM) is reported as 1.19 µM and the “apparent KD of MS2 coat protein” value (input ligand: none) is reported as 1.39 µM.
For “CCGUACGGAGGAUAUACAUGAGGAUCACCCAUGUGUCCGCGCGUGGGAACACGUAAUAGUAGAAGGCCGUCCGG [jl-ex3-4.78 Brourd automod] (Eterna round: R97, puzzle: Exclusion 3)”, the “apparent KD of MS2 coat protein” value (input ligand: FMN 200 uM) was 0.491 µM and the “apparent KD of MS2 coat protein” value (input ligand: none) was 0.0594 µM.
In the case of “AUGAGCAGACGGAGAUCCAACAUGAGGAUCACCCAUGUCUCAUAAGCUUUUUGUUCAUCUUAUUGUACCUUGGUGCA [Mat - Sensor v3 - turn-off var 1 - JL Mod - D25] (puzzle: Sensor v3, turn-off variant 1)”, the “apparent KD of MS2 coat protein” value [1] is reported as 0.0572 µM, the “apparent KD of MS2 coat protein” value [2] is reported as 0.0305 µM and the “apparent KD of MS2 coat protein” value [3] is reported as 0.0555 µM.
With “AAGAAUUUGCAGGAUAUCUACCACGAUAGGGAUAGAGAAGGGUAAACAUGAGGAUCACCCAUGUAGUAGGUCCG [Eternabot (L2) Solution 91] (Eterna round: R97, puzzle: Exclusion 6)” the “apparent KD of MS2 coat protein” value (input ligand: FMN 200 uM) was 0.0613 µM and the “apparent KD of MS2 coat protein” value (input ligand: none) was 0.115 µM.
For “CUGCUCCGUGUAGGAUAUGCGCGCACCCACCGCGCAGAAGGACAUGAGGAUCACCCAUGUAUGUUAUUAUCACGUGAGGCGCAG [Design 35] (Eterna round: R96, puzzle: Exclusion NG 1)”, the “apparent KD of MS2 coat protein” value (input ligand: FMN 200 uM) was 0.0296 µM, the “apparent KD of MS2 coat protein” value [4] was 0.0136 µM and the “apparent KD of MS2 coat protein” value (input ligand: none) was 0.0192 µM.
For “ACGAGGUCAGGAUAUACGGAGAGAGGGAGUUGGUUAGGGUAACAUGAGGAUCACCCAUGUAGAAGGGACUAGGG [JR_Exclu2_Sub080] (puzzle: Exclusion 2)”, the “apparent KD of MS2 coat protein” value [2] was 0.0399 µM.
With “AGUACUAACACGGAAGUGUUAGUACUAUAAGCUUGUGUUACAUGAGGAUCACCCAUGUCCUCAUAAGCUCGUCUUAU [Mat - Sensor v3 - Turn-off var 2 - D69] (puzzle: Sensor v3, turn-off variant 2)” the “apparent KD of MS2 coat protein” value [1] was 0.0945 µM, the “apparent KD of MS2 coat protein” value [2] was 0.087 µM and the “apparent KD of MS2 coat protein” value [3] was 0.0982 µM.
In the case of “GCCUCACUUGAGGAUCACCCAAGUCAGGAUAUUCACUGAACUGCGUAACAGCUCGGCCGAAGAAGGGAUUCGGG [Leisatat] (Eterna round: R97, puzzle: Exclusion 1)”, the “apparent KD of MS2 coat protein” value (input ligand: FMN 200 uM) is reported as 0.0808 µM and the “apparent KD of MS2 coat protein” value (input ligand: none) is reported as 0.0785 µM.
With “UAUGUAUACGUCAGGAUAUACGGUCCAGAUGGUAAGUAGAAGGGACAUGAGGAUCACCCAUGUAUAAUAAUAAU [AK 1] (puzzle: Brourd's mod of Exclusion 4)” the “apparent KD of MS2 coat protein” value [1] was 0.0202 µM, the “apparent KD of MS2 coat protein” value [2] was 0.018 µM and the “apparent KD of MS2 coat protein” value [3] was 0.0225 µM.
For “UUUUUACGAGGAUAUCGUUUUUUUCACAUGAGGAUCACCCAUGUUGUUUAUGUUGCGUUGCGAGAAGGCGUUUGUU [JR_E5_Sub063] (puzzle: Exclusion 5)”, the “apparent KD of MS2 coat protein” value [2] was 0.0242 µM.
In the case of “AAGACUCGCAAUAAGAACAAGCACUCCGAACUAUAAGUAACAUGAGGAUCACCCAUGUCAAGGGUGCCAAAGUCAAA [JR_Sensorv2_tov2_Sub302] (Eterna round: R96, puzzle: Sensor v2, turn-off variant 2)”, the “apparent KD of MS2 coat protein” value (input ligand: FMN 200 uM) is reported as 0.0154 µM, the “apparent KD of MS2 coat protein” value [4] is reported as 0.016 µM and the “apparent KD of MS2 coat protein” value (input ligand: none) is reported as 0.0186 µM.
